Patent publication US20230149462A1 (JUNO THERAPEUTICS, published 2023)

T1: human BCMA (human, UniProt Q02223 1-54, limits assumed)
T1 construct: also called B-cell maturation antigen; human BCMA polypeptide
T1 sequence: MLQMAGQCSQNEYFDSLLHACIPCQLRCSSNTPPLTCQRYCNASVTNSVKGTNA


Target: T1, human BCMA
Test: CLIPS peptide epitope mapping (Pepscan)
Description: Epitopes recognized, e.g., specifically bound by exemplary anti-BCMA scFv clones, were determined based on full discontinuous epitope mapping by Chemical Linkage of Peptides onto Scaffolds (CLIPS; Pepscan Presto BV, Lelystad, The Netherlands; see, e.g., Timmerman et al., (2007) J. Mol. Recognit. 20: 283-329). […] In some aspects, such antibodies recognize a non-linear or linear epitope including residues of such peptide of SEQ ID NO: 160, and in some aspects recognize a non-linear epitope further including residues of CIPCQLR (set forth in SEQ ID NO:159), […] and/or SVTNSVK (set forth in SEQ ID NO:161).

Row | Binder | binding result
1 | BCMA-25 scFv (scFv) scFv: EVQLVQSGGGLVQPGRSLRLSCTASGFTFGDYAMSWFRQAPGKGLEWVGFIRSKAYGGTTEYAASVKGRFTISRDDSKSIAYLQMNSLKTEDTAVYYCAAWSAPTDYWGQGTLVTVSSGGGGSGGGGSGGGGSDIQMTQSPAFLSASVGDRVTVTCRASQGISNYLAWYQQKPGNAPRLLIYSASTLQSGVPSRFRGTGYGTEFSLTIDSLQPEDFATYYCQQSYTSRQTFGPGTRLDIK | binds
2 | BCMA-55-scFv (scFv, also called BCMA-55-scFV-mFc) scFv: QSALTQPASVSASPGQSIAISCTGTSSDVGWYQQHPGKAPKLMIYEDSKRPSGVSNRFSGSKSGNTASLTISGLQAEDEADYYCSSNTRSSTLVFGGGTKLTVLGSRGGGGSGGGGSGGGGSLEMAEVQLVQSGAEMKKPGASLKLSCKASGYTFIDYYVYWMRQAPGQGLESMGWINPNSGGTNYAQKFQGRVTMTRDTSISTAYMELSRLRSDDTAMYYCARSQRDGYMDYWGQGTLVTVSS | binds
3 | BCMA-52-scFv-mFc (Fc fusion, not shown: mFc portion named in the label) SYELTQPPSASGTPGQRVTMSCSGTSSNIGSHSVNWYQQLPGTAPKLLIYTNNQRPSGVPDRFSGSKSGTSASLAISGLQSEDEADYYCAAWDGSLNGLVFGGGTKLTVLGSRGGGGSGGGGSGGGGSLEMAEVQLVQSGAEVKKPGESLKISCKGSGYSFTSYWIGWVRQMPGKGLEWMGIIYPGDSDTRYSPSFQGHVTISADKSISTAYLQWSSLKASDTAMYYCARYSGSFDNWGQGTLVTVSS | binds
4 | BCMA-26 scFv (scFv) scFv: EVQLVESGGGLVKPGGSLRLSCAASGFTFSDYYMSWIRQAPGKGLEWVSYISSSGSTIYYADSVKGRFTISRDNAKNSLYLQMNSLRAEDTAVYYCAKVDGPPSFDIWGQGTMVTVSSGGGGSGGGGSGGGGSSYVLTQPPSVSVAPGQTARITCGANNIGSKSVHWYQQKPGQAPMLVVYDDDDRPSGIPERFSGSNSGNTATLTISGVEAGDEADYFCHLWDRSRDHYVFGTGTKLTVL | binds
5 | BCMA-23 scFv (scFv) scFv: EVQLVESGGGLVKPGGSLRLSCAASGFTFSDYYMSWIRQAPGKGLEWVSYISSSGSTIYYADSVKGRFTISRDNAKNSLYLQMNSLRAEDTAVYYCAKVDGDYTEDYWGQGTLVTVSSGGGGSGGGGSGGGGSQSALTQPASVSGSPGQSITISCTGSSSDVGKYNLVSWYQQPPGKAPKLIIYDVNKRPSGVSNRFSGSKSGNTATLTISGLQGDDEADYYCSSYGGSRSYVFGTGTKVTVL | binds
